Assay results as given in patent US7521540B2, “CYR61 compositions and methods” (Munin Corporation, priority 1996, dated 2009).

Experiments:
HUVE cells = assay: Gel matrix invasion and tube formation; assay type: cell-based, human; conditions: collagen or fibrin gels
Procedure: The end product of in vitro angiogenesis is a well-defined network of capillary-like tubes. When cultured on gel matrices, e.g., collagen, fibrin, or Matrigel gels, endothelial cells must first invade the matrix before forming mature vessels.
In some wells, Cyr61 was mixed into the gel matrix before gelation (final concentration 10 μg/ml), while in other wells, Cyr61 was not in the gel matrix but was added as part of the nutrient medium (similar range of concentrations as in the matrix) after the cells reached confluency. HUVE cells were seeded onto the gel matrix surface at 5×10^4 cells per well in Ham's F12K medium [GIBCO-BRL, Inc.] containing 10% fetal bovine serum, 100 μg/ml heparin, and 30 μg/ml endothelial cell growth factor. When the cells reached confluency, the medium was removed, the cells were rinsed with PBS, and fresh medium without endothelial cell growth factor was supplied. Some cultures received purified recombinant Cyr61, while others received Cyr61 and polyclonal anti-Cyr61 antibodies. […]
Invasion of the gel matrix was quantified about 4-7 days after treatment of the confluent cultures. […] Invasion was quantified by measuring the total length of all cell cords that penetrated beneath the surface monolayer. Results were expressed as the mean length in microns per field for at least 3 randomly selected fields from each of at least 3 separate experiments. […]

Limb mesenchymal cells = assay: Limb mesenchymal cell proliferation in micromass culture; assay type: cell-based, mouse
Procedure: Ahrens et al., Dev. Biol. 60:69-82 (1977), has reported that these cells, in micromass culture, undergo chondrogenesis in a manner similar to the in vivo process. Mesenchyme cells were obtained from mouse embryonic limb buds by trypsin digestion (1 mg/ml, 1:250 dilution of porcine pancreatic trypsin, Sigma Chemical Co.). Cells were explanted in plastic tissue culture wells and allowed to attach for 2 hours at 37° C., 5% CO2. Cells were then incubated for 24 hours at 37° C., 5% CO2 in MEM with 10% FBS, penicillin (50 U/ml), and streptomycin (50 μg/ml). At this point, the composition of the medium was changed by substituting 4% NuSerum (Collaborative Biomedical Products, Inc.) for 10% FBS. Individual cultures then received Cyr61, fibronectin, heparin (each at approximately 1 μg/ml) or buffer as a negative control. […] Harlow et al.
Cell proliferation during the 4 day culture period was determined by counting cell number and by incorporation of [^3H]-thymidine. To determine cell number, cells were harvested by trypsin/EDTA (Sigma) and counted with a Coulter counter. In parallel cultures, [^3H]-thymidine (1 μCi/ml; ICN) was added to the media for 18 hours and incorporation in the TCA-insoluble layer was determined by liquid scintillation counting.

αVβ3 integrin = target: T1, αVβ3 integrin (Homo sapiens, UniProt P05106+P06756); assay: Integrin binding assay (ligand-receptor ELISA); conditions: 1 μg/ml Cyr61 or 0.1 μg/ml vitronectin
T1 construct: αVβ3 integrin purification from HUVE cell lysates was done as described in Pytela et al; endogenous in cells; host or cells: HUVE cells
Procedure: αVβ3 integrin purification from HUVE cell lysates was done as described in Pytela et al., Meth. Enzynmol., 144:475-489 (1987). Briefly, 10^8 cells were lysed in 1 ml of PBS containing 1 mM CaCl2, 1 mM MgCl2, 0.5 mM PMSF and 100 mM octylglucoside. […] The purity of the integrin was determined by SDS-PAGE under non-reducing conditions, followed by silver staining.
The integrin binding assay was developed in accordance with the disclosures in Brooks et al., Cell 85:683-693 (1996), and Lam, S. C-T (1992). […] Bound proteins were detected by specific polyclonal antisera (anti-Cyr61 antiserum was diluted 1:500 and anti-vitronectin antiserum was diluted 1:1000 in PBS containing 1 mM CaCl2, 1 mM MgCl2, and 5 mg/ml BSA) followed by a secondary antibody-horseradish peroxidase conjugate (1:20000 in the same buffer). […] Horseradish peroxidase (HRP) was detected with an HRP immunoassay kit (Bio-Rad Laboratories). The colorimetric reaction was developed for 15-30 minutes at room temperature, stopped by the addition of H2SO4, and the absorbance at 450 nm was measured. […]

T1 sequence (P06756 31-889 limits assumed): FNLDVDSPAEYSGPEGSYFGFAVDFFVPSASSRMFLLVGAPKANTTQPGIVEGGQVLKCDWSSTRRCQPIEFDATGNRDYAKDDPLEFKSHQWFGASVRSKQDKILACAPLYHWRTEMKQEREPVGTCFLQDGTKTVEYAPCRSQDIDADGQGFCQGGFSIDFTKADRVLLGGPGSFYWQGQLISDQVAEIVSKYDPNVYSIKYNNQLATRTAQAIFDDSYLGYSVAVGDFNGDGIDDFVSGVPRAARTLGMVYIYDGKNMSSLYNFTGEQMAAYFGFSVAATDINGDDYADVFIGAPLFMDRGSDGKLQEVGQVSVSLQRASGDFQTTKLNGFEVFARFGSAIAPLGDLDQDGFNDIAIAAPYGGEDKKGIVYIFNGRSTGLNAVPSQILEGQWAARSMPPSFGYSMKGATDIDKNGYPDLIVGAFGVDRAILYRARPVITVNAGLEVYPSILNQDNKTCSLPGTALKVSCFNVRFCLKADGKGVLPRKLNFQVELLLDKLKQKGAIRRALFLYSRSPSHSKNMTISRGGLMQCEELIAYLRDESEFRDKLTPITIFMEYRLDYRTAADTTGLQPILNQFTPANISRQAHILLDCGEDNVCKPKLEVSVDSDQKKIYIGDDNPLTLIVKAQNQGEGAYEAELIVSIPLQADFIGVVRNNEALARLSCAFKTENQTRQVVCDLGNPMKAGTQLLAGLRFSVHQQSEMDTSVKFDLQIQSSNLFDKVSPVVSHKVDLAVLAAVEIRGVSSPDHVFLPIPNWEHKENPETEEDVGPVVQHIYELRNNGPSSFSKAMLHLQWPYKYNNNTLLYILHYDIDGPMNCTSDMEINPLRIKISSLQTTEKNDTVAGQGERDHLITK
T1 sequence (P06756 891-1048 partner limits assumed): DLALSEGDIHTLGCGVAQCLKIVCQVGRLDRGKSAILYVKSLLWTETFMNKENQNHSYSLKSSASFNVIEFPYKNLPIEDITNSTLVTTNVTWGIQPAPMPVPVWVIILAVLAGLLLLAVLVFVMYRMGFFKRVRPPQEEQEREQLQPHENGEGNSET
T1 sequence (P05106 27-788): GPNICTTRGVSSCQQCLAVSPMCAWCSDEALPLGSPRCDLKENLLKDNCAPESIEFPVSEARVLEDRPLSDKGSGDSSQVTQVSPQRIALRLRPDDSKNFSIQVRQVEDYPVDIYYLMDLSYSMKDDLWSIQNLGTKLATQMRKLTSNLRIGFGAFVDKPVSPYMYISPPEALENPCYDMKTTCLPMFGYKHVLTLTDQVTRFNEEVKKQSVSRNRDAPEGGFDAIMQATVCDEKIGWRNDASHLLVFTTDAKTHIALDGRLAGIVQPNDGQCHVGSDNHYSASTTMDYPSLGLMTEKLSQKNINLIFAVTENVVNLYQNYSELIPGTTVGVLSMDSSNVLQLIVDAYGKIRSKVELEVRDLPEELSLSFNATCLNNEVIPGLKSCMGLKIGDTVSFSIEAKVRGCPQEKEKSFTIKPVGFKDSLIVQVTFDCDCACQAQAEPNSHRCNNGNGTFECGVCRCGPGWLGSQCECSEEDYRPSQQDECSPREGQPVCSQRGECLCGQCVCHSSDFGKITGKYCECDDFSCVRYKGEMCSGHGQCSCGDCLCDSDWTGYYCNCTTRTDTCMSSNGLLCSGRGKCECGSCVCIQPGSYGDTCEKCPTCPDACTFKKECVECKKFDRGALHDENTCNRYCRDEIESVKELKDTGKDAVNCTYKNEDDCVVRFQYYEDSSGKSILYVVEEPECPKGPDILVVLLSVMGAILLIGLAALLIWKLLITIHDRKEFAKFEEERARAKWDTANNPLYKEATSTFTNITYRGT

B1: Cyr61: Cysteine-rich ECM signaling protein; murine sequence SEQ ID NO:2, recombinant from Baculovirus-infected Sf9 cells (protein, listed as Mus musculus)
chain: MSSSTFRTLAVAVTLLHLTRLALSTCPAACHCPLEAPKCAPGVGLVRDGCGCCKVCAKQLNEDCSKTQPCDHTKGLECNFGASSTALKGICRAQSEGRPCEYNSRIYQNGESFQPNCKHQCTCIDGAVGCIPLCPQELSLPNLGCPNPRLVKVSGQCCEEWVCDEDSIKDSLDDQDDLLGLDASEVELTRNNELIAIGKGSSLKRLPVFGTEPRVLFNPLHAHGQKCIVQTTSWSQCSKSCGTGISTRVTNDNPECRLVKETRICEVRPCGQPVYSSLKKGKKCSKTKKSPEPVRFTYAGCSSVKKYRPKYCGSCVDGRCCTPLQTRTVKMRFRCEDGEMFSKNVMMIQSCKCNYNCPHPNEASFRLYSLFNDIHKFRD
- matrix invasion and tube formation (HUVE cells): induce matrix invasion and tube formation
- cell number and DNA synthesis (Limb mesenchymal cells): both increased cell number and enhanced DNA synthesis after 2 and 3 days in culture
- binding to immobilized αVβ3 integrin (αVβ3 integrin): bound to the immobilized integrin
